Positions count from the first letter of the chain named.
T1: cynomolgus monkey FcγRIIa1 extracellular domain, C-terminal His-tag (cynomolgus monkey)
T1 construct: also called cyno FcγRIIa1; cynoFcgRIIa1; not shown: His-tag added to C-terminus
T1 chain: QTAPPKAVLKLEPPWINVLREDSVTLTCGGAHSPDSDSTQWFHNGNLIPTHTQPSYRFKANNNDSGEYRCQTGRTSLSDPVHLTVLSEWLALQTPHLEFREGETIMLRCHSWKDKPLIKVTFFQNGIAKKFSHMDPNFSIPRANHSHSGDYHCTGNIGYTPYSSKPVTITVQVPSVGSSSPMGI

T2: cynomolgus monkey FcγRIIa2 extracellular domain, C-terminal His-tag (cynomolgus monkey)
T2 construct: also called cyno FcγRIIa2; cynoFcgRIIa2; not shown: His-tag added to C-terminus
T2 chain: T1 chain with P95T, T121A, I127K, A128S, K130N, D135N, R142Q

T3: cynomolgus monkey FcγRIIa3 extracellular domain, C-terminal His-tag (cynomolgus monkey)
T3 construct: also called cyno FcγRIIa3; cynoFcgRIIa3; not shown: His-tag added to C-terminus
T3 chain: T1 chain with P95T, T121A, A128S, H133P, D135N

T4: cynomolgus monkey FcγRIIb extracellular domain, C-terminal His-tag (cynomolgus monkey)
T4 construct: also called cyno FcγRIIb; cynoFcγRIIb; not shown: His-tag added to C-terminus
T4 chain: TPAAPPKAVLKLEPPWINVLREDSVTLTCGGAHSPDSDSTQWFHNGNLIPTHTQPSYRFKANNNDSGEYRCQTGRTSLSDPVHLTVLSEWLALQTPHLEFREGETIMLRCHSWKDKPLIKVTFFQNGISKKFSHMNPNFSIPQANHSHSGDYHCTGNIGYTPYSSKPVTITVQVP

T5: human FcγRIIaH extracellular domain, C-terminal His-tag (human, UniProt P12318 34-217)
T5 construct: also called human FcγRIIa (type H); FcgRIIaH; not shown: His-tag added to C-terminus
T5 sequence: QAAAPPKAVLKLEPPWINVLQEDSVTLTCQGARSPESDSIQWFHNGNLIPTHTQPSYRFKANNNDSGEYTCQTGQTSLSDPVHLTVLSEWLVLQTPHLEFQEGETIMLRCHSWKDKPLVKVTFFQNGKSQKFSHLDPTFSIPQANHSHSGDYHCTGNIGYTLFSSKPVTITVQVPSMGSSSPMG

T6: human FcγRIIaR extracellular domain, C-terminal His-tag (human, UniProt P12318 34-217)
T6 construct: also called human FcγRIIa (type R); FcgRIIaR; not shown: His-tag added to C-terminus
T6 chain: T5 sequence with H134R

T7: human FcγRIIb extracellular domain, C-terminal His-tag (human, UniProt P31994 43-217)
T7 construct: also called FcgRIIb (human); not shown: His-tag added to C-terminus
T7 sequence: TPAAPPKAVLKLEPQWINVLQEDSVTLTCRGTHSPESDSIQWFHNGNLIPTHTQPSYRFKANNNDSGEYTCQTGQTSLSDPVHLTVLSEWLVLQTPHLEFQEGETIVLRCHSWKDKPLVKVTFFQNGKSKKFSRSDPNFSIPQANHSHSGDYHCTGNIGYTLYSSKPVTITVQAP

B1: MS_M103205H795-SG1/M103202L889-SK1 (antibody, human IgG1, kappa)
heavy: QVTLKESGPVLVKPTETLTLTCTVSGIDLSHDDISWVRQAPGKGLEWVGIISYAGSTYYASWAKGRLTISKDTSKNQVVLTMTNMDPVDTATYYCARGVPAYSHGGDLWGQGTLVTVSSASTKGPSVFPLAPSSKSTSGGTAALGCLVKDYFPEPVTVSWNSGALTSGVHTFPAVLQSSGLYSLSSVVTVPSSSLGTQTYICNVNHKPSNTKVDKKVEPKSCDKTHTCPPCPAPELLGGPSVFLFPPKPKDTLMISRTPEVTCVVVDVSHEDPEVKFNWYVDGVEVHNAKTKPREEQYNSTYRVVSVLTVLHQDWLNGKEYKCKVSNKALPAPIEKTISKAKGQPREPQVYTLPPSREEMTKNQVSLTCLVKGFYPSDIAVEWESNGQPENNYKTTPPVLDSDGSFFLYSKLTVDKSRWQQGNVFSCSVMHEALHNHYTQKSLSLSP
light: DIVMTQSPATLSLSPGERATLSCTSSQSVYHANWLSWFQQKPGQPPKLLIYWASTLAYGVPSRFSGSGSGTDFTLTISSLQPEDAATYYCAGGYGGGRYAFGQGTKVEIKRTVAAPSVFIFPPSDEQLKSGTASVVCLLNNFYPREAKVQWKVDNALQSGNSQESVTEQDSKDSTYSLSSTLTLSKADYEKHKVYACEVTHQGLSSPVTKSFNRGEC
notes: Parent antibody; also called MS1032LO06-SG1
B2: M103205H795-MY142/M103202L889-SK1 (antibody, human IgG1, kappa)
heavy: QVTLKESGPVLVKPTETLTLTCTVSGIDLSHDDISWVRQAPGKGLEWVGIISYAGSTYYASWAKGRLTISKDTSKNQVVLTMTNMDPVDTATYYCARGVPAYSHGGDLWGQGTLVTVSSASTKGPSVFPLAPSSKSTSGGTAALGCLVKDYFPEPVTVSWNSGALTSGVHTFPAVLQSSGLYSLSSVVTVPSSSLGTQTYICNVNHKPSNTKVDKKVEPKSCDKTHTCPPCPAPELLEGPSVFLFPPKPKDTLMISRTPEVTCVVVDVSEEDPEVKFNWYVDGVEVHNAKTKPREEQYNSTYRVVSVLTVLHQDWLNGKEYKCKVSNKALPAPIEKTISKAKGQPREPQVYTLPPSREEMTKNQVSLTCLVKGFYPSDIAVEWESNGQPENNYKTTPMVLDSDGSFFLYSKLTVDKSRWQQGNVFSCSVMHEALHNHYTQKSLSLSP
light: B1 light
B3: M103205H795-MY219/M103202L889-SK1 (antibody, human IgG1, kappa)
heavy: B2 heavy with E238G, G239Y, E270D, A332K, M398P
light: B1 light
B4: M103205H795-MY228/M103202L889-SK1 (antibody, human IgG1, kappa)
heavy: B2 heavy with E238G, G239Y, E270D, Q297L, A332K, M398P
light: B1 light
B5: M103205H795-MY143/M103202L889-SK1 (antibody, human IgG1, kappa)
heavy: B2 heavy with E238S
light: B1 light
B6: M103205H795-MY213/M103202L889-SK1 (antibody, human IgG1, kappa)
heavy: B2 heavy with E238N, E270D, A332K, M398K
light: B1 light
B7: M103205H795-MY280/M103202L889-SK1 (antibody, human IgG1, kappa)
heavy: B2 heavy with E238V, E270D, Q297L, A332K, M398P
light: B1 light
B8: M103205H795-MY209/M103202L889-SK1 (antibody, human IgG1, kappa)
heavy: B2 heavy with E238N, E270D, Q297L, K328T, A332K, M398P
light: B1 light
B9: M103205H795-MY227/M103202L889-SK1 (antibody, human IgG1, kappa)
heavy: B2 heavy with E238G, G239Y, E270D, A332K, M398K
light: B1 light

Molecular target: T1, cynomolgus monkey FcγRIIa1 …
Experiment: SPR (Biacore), KD of SG1 / KD of variant;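 further: relative to parent M103205H795-SG1 carrying the SG1 human heavy chain constant region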
Protocol: (§1) The kinetic analysis of interactions between these antibodies and FcγR was carried out using BIACORE® T200 or BIACORE® 4000 (GE Healthcare). HBS-EP+ (GE Healthcare) was used as the running buffer, and the measurement temperature was set to 25° C. A chip produced by immobilizing Protein A. Protein A/G or mouse anti-human IgG kappa light chain (BD Biosciences) onto a Series S Sensor Chip CM4 or CM5 (GE Healthcare) by the amine-coupling method was used. […] After the measurement, the antibody captured on the chip was washed off by allowing reaction with 10 mM glycine-HCl, pH1.5 and 25 mM NaOH so that the chip was regenerated and used repeatedly. The sensorgrams obtained as measurement results were analyzed by the 1:1 Langmuir binding model using the BIACORE® Evaluation Software to calculate the binding rate constant ka (L/mol/s) and dissociation rate constant kd (l/s), and the dissociation constant KD (mol/L) was calculated from these values. […] Regarding such interactions, KD values were calculated using the following 1:1 binding model described in BIACORE® T100 Software Handbook BR1006-48 Edition AE.
(§2) The behavior of interacting molecules according to the 1:1 binding model on BIACORE® can be described by Equation 1: Req=C·R max/(KD+C)+RI, wherein, Req is a plot of steady-state binding levels to analyte concentration. C is concentration, RI is bulk refractive index contribution in the sample, and Rmax is analyte binding capacity of the surface. When this equation is rearranged, KD can be expressed as Equation 2: KD=C·Rmax/(Req−RI)−C. KD can be calculated by substituting the values of Rmax, RI, and C into Equation 1 or Equation 2. From the current measurement conditions, RI=0, C=2 μmol/L can be used.

KD fold (SG1 = 1) [fold] | Binder
1 | B1
0.8 | B2
0.5 | B3
1.1 | B4
2.9 | B5
6 | B6
3.2 | B7
5.1 | B8
1.7 | B9

Molecular target: T2, cynomolgus monkey FcγRIIa2 …
Experiment: SPR (Biacore), KD of SG1 / KD of variant;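 further: relative to parent M103205H795-SG1 carrying the SG1 human heavy chain constant region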
Protocol: as §1, §2

KD fold (SG1 = 1) [fold] | Binder
1 | B1
1 | B2
1.3 | B3
1 | B4
3.9 | B5
9.6 | B6
4.3 | B7
7.4 | B8
2 | B9

Molecular target: T3, cynomolgus monkey FcγRIIa3 …
Experiment: SPR (Biacore), KD of SG1 / KD of variant;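 further: relative to parent M103205H795-SG1 carrying the SG1 human heavy chain constant region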
Protocol: as §1, §2

KD fold (SG1 = 1) [fold] | Binder
1 | B1
0.7 | B2
3.1 | B3
4.7 | B4
5.9 | B5
13.1 | B6
8.9 | B8
6.3 | B9

Molecular target: T4, cynomolgus monkey FcγRIIb extracellular …
Experiment: SPR (Biacore), KD of SG1 / KD of variant;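 further: relative to parent M103205H795-SG1 carrying the SG1 human heavy chain constant region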
Protocol: as §1, §2

KD fold (SG1 = 1) [fold] | Binder
1 | B1
1 | B2
1.4 | B3
1.6 | B4
8.9 | B5
11.9 | B6
5.5 | B7
9.5 | B8
3.5 | B9

What follows are binders tested against T5, human FcγRIIaH extracellular domain, … (assay: SPR (Biacore), KD of SG1 / KD of variant).
Protocol: as §1, §2

KD fold (SG1 = 1) [fold] | Binder
1 | B1
3.6 | B2
0.2 | B3
0.3 | B4
18.6 | B5
2 | B6
8.5 | B7
1.2 | B8
0.5 | B9

Molecular target: T6, human FcγRIIaR extracellular domain, …
Experiment: SPR (Biacore), KD of SG1 / KD of variant
Protocol: as §1, §2

KD fold (SG1 = 1) [fold] | Binder
1 | B1
6.5 | B2
6.9 | B3
6.5 | B4
13.3 | B5
1.6 | B6
2.4 | B7
1.3 | B8
17.7 | B9

Each binder was assayed against T7, human FcγRIIb extracellular domain, … (assay: SPR (Biacore), KD of SG1 / KD of variant).
Protocol: as §1, §2

KD fold (SG1 = 1) [fold] | Binder
1 | B1
4.8 | B2
13.5 | B3
15.3 | B4
6.3 | B5
12.8 | B6
1.6 | B7
9.2 | B8
35.4 | B9

These binders were tested against T8, human FcγRIIIaV extracellular domain, C-terminal His-tag (human, UniProt P08637 17-208) (assay: SPR (Biacore), KD of SG1 / KD of variant).
T8 construct: also called FcgRIIIaV; not shown: His-tag added to C-terminus
T8 sequence (P08637 17-208 F176V): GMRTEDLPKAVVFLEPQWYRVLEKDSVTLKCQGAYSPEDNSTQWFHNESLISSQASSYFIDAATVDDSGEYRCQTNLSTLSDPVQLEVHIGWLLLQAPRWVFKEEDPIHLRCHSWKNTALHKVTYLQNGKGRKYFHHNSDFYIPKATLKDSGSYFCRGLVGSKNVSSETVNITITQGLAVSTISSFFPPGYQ
Protocol: as §1, §2

KD fold (SG1 = 1) [fold] | Binder
1 | B1
1.4 | B2
0.03 | B3
0.02 | B4
0.52 | B5
0.03 | B6
0.18 | B7
0.06 | B8
0.04 | B9

Each binder was assayed against T7, human FcγRIIb extracellular domain, … (assay: SPR (Biacore), antibody captured, FcgR analyte, 25 C).

Kd [nM] | Binder
4600 | B1
950 | B2
340 | B3
300 | B4
680 | B5
360 | B6
2900 | B7
500 | B8
130 | B9
